Assay results taken from the supplement of paper PMC9112550, “Optimization of the antimicrobial peptide Bac7 by deep mutational scanning” (BMC Biology, 2022).

System: Escherichia coli TOP10
Assay: shrunken log2 fold change of peptide-encoding DNA abundance (4.5 h post-induction vs induction); higher = less antimicrobial activity (less host growth inhibition)
Conditions: time post-induction: 4.5 h; library: site-saturation at positions 5, 18, 19, 20
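Further: peptides expressed intracellularly from a pBAD plasmid library in pooled LB shake-flask culture, induced with 0.3% L-arabinose, DNA abundance read by NGS, three biological replicates, DESeq2 with apeglm shrinkage.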

| Sequence | shrunken log2 fold change |
| --- | --- |
| RRIRVRPPRLPRPRPRPICMPRP | -0.0265 |
| RRIRVRPPRLPRPRPRPICQPRP | -0.188 |
| RRIRVRPPRLPRPRPRPIDDPRP | -0.14 |
| RRIRVRPPRLPRPRPRPIDMPRP | -0.0698 |
| RRIRVRPPRLPRPRPRPIFFPRP | 0.125 |
| RRIRVRPPRLPRPRPRPIFGPRP | -0.015 |
| RRIRVRPPRLPRPRPRPIGIPRP | -0.415 |
| RRIRVRPPRLPRPRPRPIHDPRP | -0.0895 |
| RRIRVRPPRLPRPRPRPIHIPRP | -1.11 |
| RRIRVRPPRLPRPRPRPIHWPRP | -0.131 |
| RRIRVRPPRLPRPRPRPIISPRP | -0.418 |
| RRIRVRPPRLPRPRPRPIKCPRP | -0.633 |
| RRIRVRPPRLPRPRPRPIKGPRP | -0.155 |
| RRIRVRPPRLPRPRPRPILFPRP | -0.395 |
| RRIRVRPPRLPRPRPRPILHPRP | 1.12 |
| RRIRVRPPRLPRPRPRPILLPRP | -0.815 |
| RRIRVRPPRLPRPRPRPILNPRP | -0.287 |
| RRIRVRPPRLPRPRPRPIMGPRP | 0.0179 |
| RRIRVRPPRLPRPRPRPIMPPRP | -0.535 |
| RRIRVRPPRLPRPRPRPIMVPRP | -0.219 |
| RRIRVRPPRLPRPRPRPINGPRP | -0.17 |
| RRIRVRPPRLPRPRPRPINNPRP | -0.684 |
| RRIRVRPPRLPRPRPRPIQDPRP | -0.134 |
| RRIRVRPPRLPRPRPRPIQYPRP | 0.0111 |
| RRIRVRPPRLPRPRPRPIRDPRP | 0.0875 |

| Sequence | shrunken log2 fold change |
| --- | --- |
| RRIRVRPPRLPRPRPRPISDPRP | -0.0883 |
| RRIRVRPPRLPRPRPRPITNPRP | -0.219 |
| RRIRVRPPRLPRPRPRPITRPRP | -0.0188 |
| RRIRVRPPRLPRPRPRPIVWPRP | -0.328 |
| RRIRVRPPRLPRPRPRPKADPRP | 0.0681 |
| RRIRVRPPRLPRPRPRPKANPRP | 0.103 |
| RRIRVRPPRLPRPRPRPKCNPRP | -0.181 |
| RRIRVRPPRLPRPRPRPKCWPRP | 0.313 |
| RRIRVRPPRLPRPRPRPKDDPRP | 0.0252 |
| RRIRVRPPRLPRPRPRPKDYPRP | -0.366 |
| RRIRVRPPRLPRPRPRPKEFPRP | 0.0951 |
| RRIRVRPPRLPRPRPRPKFDPRP | 0.21 |
| RRIRVRPPRLPRPRPRPKFIPRP | -0.286 |
| RRIRVRPPRLPRPRPRPKFQPRP | -0.274 |
| RRIRVRPPRLPRPRPRPKGKPRP | 0.102 |
| RRIRVRPPRLPRPRPRPKHMPRP | -0.518 |
| RRIRVRPPRLPRPRPRPKIKPRP | -0.303 |
| RRIRVRPPRLPRPRPRPKILPRP | -0.0923 |
| RRIRVRPPRLPRPRPRPKKWPRP | -0.00649 |
| RRIRVRPPRLPRPRPRPKLQPRP | 0.32 |
| RRIRVRPPRLPRPRPRPKNHPRP | -0.18 |
| RRIRVRPPRLPRPRPRPKNNPRP | -0.406 |
| RRIRVRPPRLPRPRPRPKQNPRP | 0.385 |
| RRIRVRPPRLPRPRPRPKRNPRP | 0.166 |
| RRIRVRPPRLPRPRPRPKTAPRP | 0.0988 |

| Sequence | shrunken log2 fold change |
| --- | --- |
| RRIRVRPPRLPRPRPRPKTFPRP | -0.0753 |
| RRIRVRPPRLPRPRPRPKVLPRP | -0.51 |
| RRIRVRPPRLPRPRPRPKVTPRP | 0.0458 |
| RRIRVRPPRLPRPRPRPLAVPRP | 0.33 |
| RRIRVRPPRLPRPRPRPLCDPRP | -0.108 |
| RRIRVRPPRLPRPRPRPLDGPRP | -0.267 |
| RRIRVRPPRLPRPRPRPLDLPRP | -0.0307 |
| RRIRVRPPRLPRPRPRPLDSPRP | -0.19 |
| RRIRVRPPRLPRPRPRPLDTPRP | -0.257 |
| RRIRVRPPRLPRPRPRPLEIPRP | -0.073 |
| RRIRVRPPRLPRPRPRPLEQPRP | -0.0372 |
| RRIRVRPPRLPRPRPRPLFVPRP | -0.175 |
| RRIRVRPPRLPRPRPRPLGLPRP | 0.122 |
| RRIRVRPPRLPRPRPRPLGNPRP | -0.424 |
| RRIRVRPPRLPRPRPRPLGWPRP | 0.467 |
| RRIRVRPPRLPRPRPRPLILPRP | -0.409 |
| RRIRVRPPRLPRPRPRPLLAPRP | 0.343 |
| RRIRVRPPRLPRPRPRPLLHPRP | -0.114 |
| RRIRVRPPRLPRPRPRPLMCPRP | -0.268 |
| RRIRVRPPRLPRPRPRPLMFPRP | -0.449 |
| RRIRVRPPRLPRPRPRPLQRPRP | -0.0358 |
| RRIRVRPPRLPRPRPRPLRAPRP | 0.719 |
| RRIRVRPPRLPRPRPRPLRVPRP | 0.543 |
| RRIRVRPPRLPRPRPRPLTKPRP | 0.044 |
| RRIRVRPPRLPRPRPRPLTWPRP | -0.195 |
